This passage reports increase in the sensitivity of chemical complementation (yeast growth in response to 9cRA) against GBD:RXR alone results from patent US20110027820A1.

The assay has as its target Gal4 DNA binding domain (DBD) fused to the RXR ligand binding domain (GBD:RXR) (yeast; human) (UniProt P04386). The experiment in a line: cell-based or functional assay.

“human nuclear receptor coactivator ACTR fused to the yeast Gal4 activation domain (ACTR:GAD) (from UniProt Q9Y6Q9 1-1424)” returned an increase in the sensitivity of chemical complementation (yeast growth in response to 9cRA) against GBD:RXR alone of 1000 fold.
